Read-outs that look alike come from different tables or passages of the source.
Target: avidin (Gallus gallus, UniProt P02701)
Conditions: for A500 Measurement reagent 1: room temperature 5 minutes
Protocol: HABA (1 mg) and PBS (33 mL) were mixed to obtain a HABA solution. […] In the reagent, the concentration of avidin was 250 μg/mL, and the concentration of HABA was 30 μg/mL.
A reagent for measuring L-biotin (91.7 μL) was mixed with 0.1 M phosphate buffer (pH 7.5, 18.3 μL) or an L-biotin standard solution (18.3 μL), and the mixture was allowed to stand at room temperature for 5 minutes. Then, the absorbance at 500 nm (A500) of the reaction mixture was measured by spectrophotometer UV-2600 (Shimadzu Corporation). […] As a calibration curve, a straight line by a least squares method was used.
A sample containing the L-biotin-labeled BSA prepared in the above (3.2.1) was diluted 100-fold with 0.1 M phosphate buffer (pH 7.5). A reagent for measuring L-biotin (91.7 μL) and a sample containing diluted L-biotin-labeled BSA (18.3 μL) or a sample containing an L-biotin-labeled antibody (18.3 μL) were mixed, and the mixture was allowed to stand at room temperature for 5 minutes. Then, A500 of the reaction mixture was measured by UV-2600. The amount (μM) of L-biotin contained in each sample was determined from a calibration curve (regression equation) for the reagent for measuring L-biotin.

Sequence of avidin (P02701 25-152): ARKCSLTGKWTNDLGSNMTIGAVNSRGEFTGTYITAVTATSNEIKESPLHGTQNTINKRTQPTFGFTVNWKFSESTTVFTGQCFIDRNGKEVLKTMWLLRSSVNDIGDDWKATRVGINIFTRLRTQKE

Row | Compound | Biotin concentration (D-biotin in sample, Table 3) [µM] | D-Biotin (from calibration curve, BSA sample value multiplied by 100) [µM] | A500 (sample with Reagent 1 for measuring D-biotin, BSA sample diluted 100-fold) | A500 Measurement reagent 1 (D-biotin standard solution 25 μM) | A500 Measurement reagent 1 (D-biotin standard solution 50 μM)
1 | D-Bio-BSA: BSA labeled with D-biotin AC5-NHS | 1375.0 | 1375.0 | 0.257 |  | 
2 | O=C(O)CCCC[C@@H]1SC[C@@H]2NC(=O)N[C@@H]21 [D-Biotin, 3aS,4S,6aR-D-biotin] |  |  |  | 0.194 | 0.062

Reference: patent US20230288426A1, “REAGENT FOR MEASURING L-BIOTIN, METHOD FOR MEASURING SAMPLE CONTAINING L-BIOTIN, METHOD FOR DETERMINING NUMBER OF LABELS OF L-BIOTIN-LABELED SUBSTANCE, AND METHOD FOR PRODUCING SOLID PHASE ON WHICH OPTICALLY ISOMERIC BIOTIN-BINDING SITE IS IMMOBILIZED” (SYSMEX CORPORATION, priority 2022, published 2023)
